Results on one molecule are retold here after US20070098693A1, “Methods for enhancing engraftment of purified hematopoietic stem cells in allogenic recipients” (priority 2003, published 2007).

What all share (assay type): cell-based, mice
Assay [1] deals with CD8^+/TCR^− FC. As to the kind of experiment: CpG ODN / LPS stimulation of sorted FC, cytokine production by ELISA / multiplex. The settings on record: FC from 10 day FL-cultured BM, overnight culture, medium. The protocol:
(§1) CpG oligodeoxynucleotides (ODN) stimulation. Sorted p-preDC or FC were cultured for 18 hours at 10^5 cells/200 μL in 96 well round-bottom culture plates in culture medium in the presence or absence of Toll-like receptor (TLR)-9 ligand, CPG-ODN 1668 (TCCATGACGTTCCGATGCT) (SEQ ID NO. 1) (GibcoBRL Custom Primers) at 1 μM, TLR-4 ligand, LPS from Escherichia coli (Sigma, MO, USA) at 10 μg/ml, as previously described^30. CpG or LPS-treated or untreated cells were subsequently assayed for: 1) the expression of DC activation/maturation cell surface markers by FACS, 2) their survival rate by 7AAD staining, or 3) morphological appearance by Wright Giemsa staining on cytospins. The supernatant of these cultures were collected for analysis of the production of different cytokines by ELISA.
Cytokine production by ELISA. Briefly, the cell-free supernatants of 12H, 18H, or 24H cultured cells (FC or p-preDC,) with or without CpG ODN or LPS were collected and kept frozen at −80° C. The amount of cytokine produced was determined by 1) ELISA kits for mouse IFN-α (R&D system) and mouse TNF-α (Biosource International), and 2). Multiplex for MIP 1αCCL3), GM-CSF, MCP-1 (CCL2), RANTES (CCL5), IFN-γ, IL-1β, IL-2, IL-4, IL-5, IL-6, IL-10, IL-12p70, IL-9, and IL13 on 18 hour incubation supernatants from three different experiments performed by Linco Diagnostic Services (St. Charles, Mo.).
A general note: ELISA stands for enzyme-linked immunosorbent assay.

The test system of assay [2] is CD8^+/TCR^− FC. As to the kind of experiment: Activation marker expression on sorted FC after 18 h culture (FACS). The following applies: FC from 10 day FL-cultured BMC, overnight culture, medium.
Text: (§2) mAbs and Flow cytometry. The following mAbs (all from BD Biosciences Pharmingen, San Diego, Calif., except those labeled with APC-cy-7 from eBioscience, San Diego, Calif.) were used. To sort CD8^+/TCR^− FC: anti-CD8α (53-6.7) PE-labeled, anti-TCR β chain (H57-597) and anti-TCR γδ chain (GL3) FITC-labeled. To sort B220^+/CD11c^dim/CD11b^− p-preDC: anti-CD11b (M1/70) APC-labeled, anti-CD45R/B220 (RA3-6B2) APC-Cy7-labeled, anti-CD11c (HL3) PE-labeled, and anti-TCR β chain (H57-597), anti-TCR γδ chain (GL3), anti-CD14 (rmC5-3), anti-CD19 (1D3), anti-Pan-NK cells (DX5), and anti-NK1.1 (PK136), all FITC-labeled. To sort HSC: anti-TCR β chain (H57-597), anti-TCR γδ chain (GL3), anti-Ly-6G (Gr-1), anti-CD11b, Mac1 (M1/70), anti-CD8α (53-6.7) and anti-CD45R/B220 (RA3-6B2), all FITC-labeled, anti-Ly-6A/E (Sca-1) (E13-161.7) PE-labeled and anti-c-Kit (CD117) (2B8) APC-labeled. To restain the sorted FC population: purified anti-CD16/CD32 (FcγIII/II receptors) (2.4G2), anti-CD11c (HL3), anti-CD4 (RM4-5) and anti-CD19 (1D3) all APC-labeled, anti-CD45R/B220 (RA3-6B2) PerCP-labeled, and anti-Pan-NK cells (DX5), anti-NK1.1 (PK136), anti-CD14 (rmC5-3), and anti-Ly-6G (Gr-1) FITC-labeled. To analyze the activation state: anti-CD80 (B7-1) ([…]), anti-CD86 (B7-2) ([…]), and anti-I-A^b (Aβ^b) (AF6-120.1) FITC-labeled. For PBL typing and multilineage chimerism: anti-H-2 K^b (AF6-88.5) PE or FITC-labeled, anti-H-2K^k (36-7-5) PE or FITC-labeled, anti-TCR β chain (H57-597), anti-NK1.1 (PK136), anti-Ly-6G (Gr-1), anti-CD11b, Mac1 (M1/70) and anti-CD45R/B220 (RA3-6B2) all FITC-labeled. Detection of dead cells after cell culture was determined by using a 7-Amino-actinomycin D (7-AAD) (Molecular Probes, Eugene, Oreg.) followed by FACS analysis.
as §1

For a further assay, the system named is FC from cultured BM. As to the kind of experiment: Culture of BMC with FL for 10 days, expansion of FC. The following applies: 10 days in culture with FL, n=8. The method, then:
Culture of BMC with FL. BMC were resuspended at 10^6 cells/ml in culture medium consisting of RPMI 1640 (Gibco), 10% FBS (Gibco), 1 mM Sodium pyruvate (Gibco), 10 mM Hepes (Gibco), 2 mM L-Glutamine (Gibco), Penicillin 100 U/mL, 100 μg/mL Streptomycin, (Gibco), and 10^−5 M 2-mercaptoethanol (Sigma), supplemented with human FL (100 ng/ml, generous gift from Amgen, Seattle, Wash.). Every 5 days of culture, half of the medium was replaced by fresh cytokine-supplemented culture medium according to a protocol previously described^30.
Cell sorting. HSC, FC, and p-preDC were sorted as previously described^9,30,49. HSC were sorted for Sca-1^+c-Kit^+Lin^− expression, FC were sorted for CD8α^+/TCRαβ^−/TCRγδ^− expression, and p-preDC were sorted for CD11c^dim/CD11b^−/B220^+ expression. Briefly, BMC were incubated with Abs on ice for 30 minutes, cells were washed twice in the CSM, filtered, and resuspended to a final concentration of 2.5×10^6 cells/mL in the CSM for cell sorting. The isolation of the cell populations was performed on FACSVantage Flow Cytometers (Becton Dickinson). The populations of interest were isolated from the live lymphoid gate, and after reanalysis, only cells with a purity of >94% were used.

The test system of assay [3] is B220^+/CD11c^dim/CD11b^− p-preDC. As to the kind of experiment: Activation marker expression on sorted p-preDC after 18 h culture (FACS). The settings on record: p-preDC from 10 day FL-cultured BMC versus fresh p-preDC.
Text: as §2, §1

Assay [4] has as its system CD8^+/TCR^− FC. As to the kind of experiment: Cell death of sorted FC after overnight culture (7AAD staining). The following applies: FC from 10 day FL-cultured BM, medium, n=3; versus 53.6% fresh cells.
Text: as §2, §1

Assay [5] concerns B220^+/CD11c^dim/CD11b^− p-preDC. As to the kind of experiment: Cell death of sorted p-preDC after overnight culture (7AAD staining). The following applies: versus fresh cells (data not shown).
Text: as §2
CpG oligodeoxynucleotides (ODN) stimulation. […]

B1: FL: Recombinant human Flt-3 Ligand (FL, kindly provided by Amgen, Seattle, Wash.) (protein, UniProt P49771 27-235, looked up)
Fms-related tyrosine kinase 3 …: TQDCSFQHSPISSDFAVKIRELSDYLLQDYPVTVASNLQDEELCGGLWRLVLAQRWMERLKTVAGSKMQGLLERVNTEIHFVTKCAFQPPPSCLRFVQTNISRLLQETSEQLVALKPWITRQNFSRCLELQCQPDSSTLPPPWSPRPLEATAPTAPQPPLLLLLLLPVGLLLLAAAWCLHWQRTRRRTPRPGEQVPPVPSPQDLLLVEH
For the molecule B1, the “IFN-α production by FL-derived FC” value with CD8^+/TCR^− FC [1] is “significant amounts of IFN-α”. In addition, the “CD80 expression on FL-derived FC” value in the assay on CD8^+/TCR^− FC [2] (versus 11% of fresh FC) stood at 47%. The “CD86 expression on FL-derived FC” value with CD8^+/TCR^− FC [2] (versus 17% of fresh FC) was found to be 51%. Also, the “Class II expression on FL-derived FC” value in the assay on CD8^+/TCR^− FC [2] (versus 18% of fresh FC) stood at 40%. Besides, the “increase in FL-derived FC from cultured BM” value in the assay on FC from cultured BM was found to be 7 fold. Further, in assay [3], the “CD80 level on FL-derived p-preDC” value is given as “upregulated”, the “CD86 level on FL-derived p-preDC” value is recorded as “upregulated” and the “Class II level on FL-derived p-preDC” value was “upregulated”. Also, the “death of FL-derived FC after overnight culture” value with CD8^+/TCR^− FC [4] is on record as 71%. For the same molecule, the “death of FL-derived p-preDC after overnight culture” value in assay [5] is recorded as “more sensitive to death”.
